From patent publication US20200392183A1 (Memorial Sloan Kettering, published 2020)

Molecular target: T1, HLA-A0201 molecule on T2 cells (TAP-, HLA-A0201+) (human)
T1 construct: Empty, thermolabile HLA-A0201 on T2 cells; also called HLA-A2; HLA-A2 molecule
Test: T2 stabilization assay, surface HLA-A2 by flow cytometry (BB7.2)
Experimental: T2 cells (TAP-, HLA-A0201+) were incubated overnight at 37° C. at 1×10⁶ cells/ml in FCS-free RPMI medium supplemented with 10 ug/ml human beta-2m (Sigma, St Louis, Mo., USA) in the absence (negative control) or presence peptides at various final concentrations (50, 10 and 2 ug/ml). Brefeldin A (Sigma) at 5 ug/ml was added to the cultures for the final two hrs of incubation. Then T2 cells were washed and stained with anti-HLA-A2.1 (BB7.2) mAb conjugated to FITC for 30 min at 4° C. and followed by washing with staining buffer (PBS plus 1% FBS and 0.02% azide). The expression of the HLA-A2 on the cell surface was measured by flow cytometry on a FACScalibur (Becton Dickinson) and analyzed with FlowJo 9.6.3 software.

Binder | binding result
NQMNLGATL (Synthetic 9-mer from Genemed Synthesis; also called native peptide; A24-native peptide) [native WT1 peptide NQMNLGATL (SEQ ID NO:5)] | no binding (tested: 50, 10 and 2 ug/ml tested)
NLMNLGATL (also called A24-het-1; Het24-1) [heteroclitic WT1 analogue peptide NLMNLGATL (SEQ ID NO:6)] | binds
NYMNLGATL (also called A24-het-2; Het24-2) [heteroclitic WT1 analogue peptide NYMNLGATL (SEQ ID NO:7)] | no binding (tested: 50, 10 and 2 ug/ml tested)
